Several values for one entry are separate records, joined by “and”; a condition that tells them apart may be missing. Equal values may be shown once.
How the values were obtained:
[1] = test system: peripheral blood and tissue T-cells; assay: Flow cytometry of T-cell subsets after HCT (Tscm, TN, TCM, TEM, Ki-67, OX40, Treg, cytokines); assay type: in vivo, Rhesus macaque
Experimental: Longitudinal peripheral blood samples were collected before and after haematopoietic stem cell transplant and at necropsy for flow cytometric analysis of lymphocyte subsets. Lung, liver, colon spleen and lymph node (axillary and inguinal) tissues were collected at necropsy and dissociated or enzymatically digested as appropriate for subsequent analysis of lymphocyte infiltrates by flow cytometry. Samples were analysed by multicolour flow cytometry using a LSRFortessa cell analyser (BD Biosciences) using the following T lymphocyte marker probes: CD3 (APC-Cy7 label; clone SP34-2, BD Biosciences), CD4 (BV786 label; clone L200, BD Biosciences), CD8 (BUV395 label; clone RPA-T 8, BD Bioscences), CD28 (PE-Cy7 label; clone CD28.2, eBioscience), CD95 (BV605 label; clone DX2, Biolegend). Proliferating cell populations were identified using Ki-67 (FITC label, Dako). CD4^+ or CD8^+T-cell subcompartments were labelled as follows: naïve T-cells (CD28^+/CD95^−), central memory T-cells (CD28^+/CD95^+), effector memory T-cells (CD28−/CD95^+).
Blood was collected into tubes with Sodium EDTA, and then red blood cells were lysed with lysis buffer containing ammonium chloride. Remaining leukocytes were washed with FACS buffer (PBS with 2% FBS) and stained with antibody cocktail (Table 7) for 30 minutes at 4° C. After staining, cells were washed and fixed in 1× BD Stabilising Fixative. Acquisition of flow data was performed on BD LSR Fortessa cytometer. Data were analysed using FloJo. T-cells were defined as CD3^+CD14/CD20-lymphocytes.
Peripheral blood mononuclear cells were isolated at different time points by Ficoll-Paque gradient and then were stained for cell surface markers (CD3, CD4, CD8) followed by fixation/permeabilization (using BD Cytofix/Cytoperm kit) and intracellular staining for Ki-67. Ki-67 expression in NHP peripheral blood CD4^+ (FIG. 8A) and CD8^+ (FIG. 8B) was measured. T-cells before (pre-HCT) and following allogeneic HCT in recipients being untreated (No Rx) or treated with OX40L antibody. Plots show Ki-67 expression in NHP peripheral blood bulk CD4^+ (FIG. 8C) and CD8^+ (FIG. 8D) T-cells before (pre-HCT) and following allogeneic HCT in recipients treated with rapamycin and with a combination of rapamycin and anti-OX40L antibody. Statistical analysis was performed using Holm-Sidak multiple-comparison post-test. *p<0.05.
Peripheral blood mononuclear cells were isolated prior (pre-HCT) and during terminal analysis following allogeneic HCT without immunoprophylaxis (No Rx), or treatment with rapamycin, or treatment with anti-OX40L antibody, or treatment with a combination of anti-OX40L antibody and rapamycin by Ficoll-Paque gradient and then were stained for cell surface markers (CD3, CD4, CD8, CD25, CD127 and OX40) followed by fixation/permeabilization (using BioLegend FoxP3 kit) and intracellular staining for FoxP3.
Animals were kept on the indicated immunoprophylaxis regimens. Time-points with n<3 were censored. Multiple t-test with Holm-Sidak correction was performed between the groups.
Whole blood cells were stained for CD3, CD4, CD8, CD14, CD20, CD45RA and CCR7 and then analysed by FACS. T-cells were defined as CD3^+CD14^−CD20^− lymphocytes and divided into CD4^+ and CD8^+ T-cell subsets. Memory T-cells (Tmem) were defined as CD45RA- and effector Tcells (Teff) as CD45RA+CCR7^− Tcells in both CD4 and CD8 gates. Combined populations of memory+effector CD4^+(FIG. 10A) and CD8^+(FIG. 10B) T-cells were longitudinally tracked before and at different time point following allogeneic HCT in recipients treated with anti-OX40L antibody, treated with rapamycin, or with a combination of rapamycin and anti-OX40L antibody. […]

[2] = KY1005 pharmacokinetic (PK) analysis (OX40L capture ECL, MSD); assay type: in vivo, Rhesus macaque; conditions: mono-prophylaxis, 10 mg/kg once weekly (FIG. 16A)
Experimental: For PK analysis, serum samples were collected 30 minutes before and 30 minutes after each infusion of KY1005 and then once weekly after the last dose was given. The KY1005 concentration was measured using an antigen (OX40L) capture electrochemiluminescence (ECL) assay on the MSD platform. In this assay, an MSD streptavidin 96-well plate is first coated with biotinylated-OX40L, followed by the addition of test samples, followed by the detection of bound KY1005 by a ruthenylated anti-human IgG (pre-adsorbed against monkey serum for added specificity).

[3] = molecular target: Rhesus monkey OX40L; assay: Surface plasmon resonance, apparent affinity to rhesus OX40L; assay type: binding, Rhesus (Macaca mulatta); conditions: SPR, 25° C.; CNROR = Cannot resolve off-rate
Rhesus monkey OX40L, sequence (as listed by the source): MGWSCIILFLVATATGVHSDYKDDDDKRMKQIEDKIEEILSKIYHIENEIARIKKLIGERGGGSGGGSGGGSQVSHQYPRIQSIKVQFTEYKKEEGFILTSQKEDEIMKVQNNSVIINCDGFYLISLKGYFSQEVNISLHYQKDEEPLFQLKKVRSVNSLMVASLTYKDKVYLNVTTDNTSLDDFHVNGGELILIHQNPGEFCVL
Experimental: (§1) SPR analysis was carried out using the ProteOn™ XPR36 Array System (BioRad). Anti-mouse IgG (GE Healthcare BR-1008-38) was immobilised on a GLM biosensor surface using amine coupling, the surface was then blocked using 1 M ethanolamine. Test antibodies were captured on this surface and recombinant hOX40L (human and rhesus) were used at a single concentration of 256 nM, binding sensorgrams were double referenced using a buffer injection (i.e. 0 nM) to remove baseline drift and injection artefacts. Apparent affinities for the OX40L-antibody interaction were determined using the 1:1 model inherent to the ProteOn XPR36 analysis software. The assay was run using HBS-EP (Teknova) as running buffer and carried out at 25° C.

[4] = test system: Cytomegalovirus (CMV), bacterial and fungal infections; assay: CMV monitoring and infections after transplant; assay type: in vivo, Rhesus macaque; conditions: 2D10 IgG4PE Rhesus GvHD Study, per animal
Experimental: Cytomegalovirus (CMV) monitoring was performed as previously described (Larsen et al, 2010) and is reported as CMV copies/mL of whole blood. Whole blood samples were collected and CMV viral load was measured twice weekly on days 0 to 30 post-HCT, then at least once weekly on days 31 to 60 post-HCT and then at least once every 2 weeks from day 61 until the experimental endpoint. CMV prophylaxis and treatment was performed according to our standard NHP strategy, as previously described (Zheng et al, 2017). Briefly, CMV prophylaxis was provided to all transplant recipients and included weekly Cidofovir, given at a dose of 5 mg/kg, along with renal protection with 3 doses of Probenecid (167 mg PO/dose) given within the first 24 hours after each cidofovir dose. Recipients who reactivated CMV continued cidofovir and were also treated with parenteral gancyclovir, which was given at 5 mg/kg/dose twice daily. Gancyclovir treatment was continued until CMV levels were undetectable for two weeks and then discontinued.

[5] = molecular target: T1, recombinant hOX40L (Homo sapiens, UniProt P23510); assay: Surface plasmon resonance, apparent affinity to human OX40L; assay type: binding; conditions: SPR, 25° C.; CNROR = Cannot resolve off-rate
T1 construct: cDNA encoding the extracellular domain of human OX40L was cloned into a pREP4 expression plasmid; isoleucine zipper (N); made in house; host or cells: FreeStyle CHO-S (transient)
T1 sequence (P23510 with tags, fused parts or gaps): as the sequence (as listed by the source) above, with Q77R, E95K counted along it
Experimental: as §1

Molecule	frequency of OX40^+ Treg cells ([1]; FIGS. 8O and 8O-1)	relative and absolute numbers of CD4^+ TCM cells ([1]; after HCT, p<0.05)	CD4^+ T-cell production of IFNγ, TNFα or IL-2 ([1]; after transplant (FIG. 8N))	ability of CD4^+ T-cells to express IL17A ([1]; after transplant (FIG. 8N))	proliferation of CD8^+ T-cells ([1]; monotherapy (FIGS. 8F & 8G))	sustained CD4^+ T-cell proliferation, as measured by Ki67 expression ([1]; monotherapy (FIGS. 8F & 8G))	Treg to Tconv ratio ([1]; peripheral blood after HCT (FIG. 11B))	KY1005 trough [2] [mg/L]	Apparent Affinity RhsOX40L (nM) [3]	Ki-67 expression on T-cells / T-cell proliferation ([1]; NHP peripheral blood after allogeneic HCT (FIG. 8))	CD4^+ Tscm expansion ([1]; Rhesus macaque after allogeneic HCT (FIG. 4))	T(eff+mem) cell population ([1]; after allogeneic HCT (FIG. 10))	proportion of Tscm cells compared with the sirolimus and Tac/MTX treatment ([1]; peripheral blood, post-HCT (FIG. 6a, 6b))	evidence of CMV or rhLCV infection [4]	Apparent Affinity hOX40L (nM) [5]
KY1005: antibody used for GVHD immunoprophylaxis in NHP, measured by antigen (OX40L) capture assay; not tied to 02D10 in this part	does not affect	significant reductions	without affecting	specifically reducing their ability to express IL17A	less effect	significant inhibitory impact	protected against the significant drop	107.9 ± 11.7	–	–	–	–	–	–	–
2D10 IgG4PE: fully human anti-human OX40L monoclonal antibody, human IgG4-PE; VH Seq ID No:34, VL Seq ID No:48; 2D10-1 to -4 are stable pools (antibody, V domains shown, human IgG4-PE constant regions; 02D10 - VH Amino Acid Sequence; 02D10 - VL Amino Acid Sequence) VH: EVQLVESGGGLVQPGGSLRLSCAASGFTFSNYAMNWVRQAPGKGLEWVSTISGSGGATRYADSVKGRFTISRDNSRNTVYLQMNSLRVEDTAVFYCTKDRLIMATVRGPYYYGMDVWGQGTTVTVSS VL: DIQMTQSPSSLSASVGDRVTITCRASQSISSYLNWYQQKPGKAPNLLIYAASSLQSGVPSRFSGSGSETDFTLTISSLQPEDFATYYCQQSHSVSFTFGPGTKVDIK	–	–	–	–	–	–	–	–	CNROR	reverses that expression	limited CD4^+ Tscm expansion	does not effectively suppress proliferation of CD8^+T(eff+mem) cells	sustained inhibition	No evidence of CMV or rhLCV infection and No (3×) and followed by autologous repopulation concurrent with evidence of CMV and rhLCV	CNROR
